Assay results reported in patent US20240247072A1 (KEYMED BIOSCIENCES, published 2024).
Positions count from the first letter of the chain named.

Legend:
[1] = molecular target: T1, recombinant trimeric protein of human CD70 extracellular region (human CD70 mIgG Fc (knob) / mouse IgG Fc … (human, UniProt P01863 98-330 = IgG part)); test: competition ELISA, chimeric IgG titrated, CD27 coated, biotin-CD70, human pair
T1 construct: The ELISA and Octet texts say only 'recombinant CD70 protein' / 'CM352 antigen'; also called recombinant human CD70 protein; recombinant CD70 protein
T1 chain 1: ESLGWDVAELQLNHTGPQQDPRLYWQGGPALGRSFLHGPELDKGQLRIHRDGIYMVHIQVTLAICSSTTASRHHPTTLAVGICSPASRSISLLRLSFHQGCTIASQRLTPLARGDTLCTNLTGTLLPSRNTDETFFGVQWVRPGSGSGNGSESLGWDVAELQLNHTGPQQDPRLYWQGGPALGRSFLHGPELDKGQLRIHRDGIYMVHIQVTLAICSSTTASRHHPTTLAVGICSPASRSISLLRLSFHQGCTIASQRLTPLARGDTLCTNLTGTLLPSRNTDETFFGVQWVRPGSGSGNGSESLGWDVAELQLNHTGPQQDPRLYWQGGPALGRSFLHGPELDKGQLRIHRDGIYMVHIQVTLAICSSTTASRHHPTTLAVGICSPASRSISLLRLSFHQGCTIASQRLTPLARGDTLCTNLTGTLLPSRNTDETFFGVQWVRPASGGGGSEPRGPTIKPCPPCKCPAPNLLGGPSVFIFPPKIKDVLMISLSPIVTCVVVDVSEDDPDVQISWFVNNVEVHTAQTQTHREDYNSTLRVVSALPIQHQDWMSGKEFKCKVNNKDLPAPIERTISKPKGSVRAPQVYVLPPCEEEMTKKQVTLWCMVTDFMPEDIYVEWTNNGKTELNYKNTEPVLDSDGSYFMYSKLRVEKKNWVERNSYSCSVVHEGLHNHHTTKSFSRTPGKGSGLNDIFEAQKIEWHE
T1 chain 2: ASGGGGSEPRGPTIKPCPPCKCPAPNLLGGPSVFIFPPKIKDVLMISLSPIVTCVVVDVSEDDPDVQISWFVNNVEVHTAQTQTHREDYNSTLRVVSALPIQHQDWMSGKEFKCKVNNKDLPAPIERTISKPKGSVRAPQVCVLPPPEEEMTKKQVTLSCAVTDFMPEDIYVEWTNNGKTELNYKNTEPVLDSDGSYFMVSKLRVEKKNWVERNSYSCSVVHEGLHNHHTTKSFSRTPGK
Method: (§1) The recombinant CD27 protein was coated at 1 μg/mL in a 96-well microtiter plate and incubated overnight at 4° C. The next day, the plate was washed 3 times with PBS, added with 200 μL of 2% defatted dry milk/PBS, blocked at room temperature for 2 hours, and washed once with PBS. The purified chimeric antibody was divided to 12 concentration gradients starting at 100 nM and diluted in a 1:3 gradient. […] of the antibody was added per well and incubated at room temperature for 30 minutes. […] The plate was washed 3 times with PBST and PBS and dried by spinning. A secondary antibody Streptavidin-coupled horseradish peroxidase SA-HRP (BD bioscience, cat. No: 6222697) was diluted with 0.5% BSA in a ratio of 1:8000. 100 μL of the diluent was added into each well and incubated at room temperature for 30 minutes. The plate was washed 3 times with PBST and PBS and dried by spinning. 100 μl of color development solution (TMB solution, Sigma, Cat. No: T2885) was added into each well and protected from light at 37° C. for reaction. After the substrate developed moderately, 50 μl of H₂SO₄ was added into each well to terminate the reaction. The OD450 nm was determined by using an enzyme-linked detector within 30 minutes, and the data was collected. The results were calculated by using Graph Pad Prism 5 software.

[2] = molecular target: T2, recombinant cynomolgus monkey CD70 protein (cynomolgus monkey, UniProt A0A2K5WTU9 39-190); test: competition ELISA, chimeric IgG titrated, CD27 coated, biotin-CD70, cynomolgus pair
T2 construct: it stands only in column heads ('Monkey', 'Cynomolgus Monkey CD70/CD27') and in result sentences; also called Monkey (ELISA)
T2 sequence: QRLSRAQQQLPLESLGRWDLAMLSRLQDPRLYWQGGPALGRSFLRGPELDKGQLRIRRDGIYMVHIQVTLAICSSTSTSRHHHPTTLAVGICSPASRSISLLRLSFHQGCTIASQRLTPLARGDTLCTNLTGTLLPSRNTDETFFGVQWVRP
Method: as §1

[3] = molecular target: T3, cynomolgus monkey CD70, full length, on CHO cells (CHO-monkey CD70-D01) (cynomolgus monkey, UniProt A0A2K5WTU9 1-190); test: flow cytometry, chimeric IgG on CHO-cynomolgus monkey CD70 cells
T3 construct: whole, on cells; Stably transfected CHO cells; also called CHO-cynomolgus monkey CD70
T3 sequence: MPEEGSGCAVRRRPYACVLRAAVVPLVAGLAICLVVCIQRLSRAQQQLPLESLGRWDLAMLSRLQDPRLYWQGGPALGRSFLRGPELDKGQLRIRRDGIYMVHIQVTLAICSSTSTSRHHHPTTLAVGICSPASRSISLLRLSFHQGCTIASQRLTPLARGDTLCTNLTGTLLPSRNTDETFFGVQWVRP
Method: (§2) Different cells in logarithmic growth phase were taken, blocked with 3% BSA for 30 minutes, and plated to a 96-well U-plate at 5×10⁴ cells/100 μL. The centrifuge was performed at 1100 rpm for 3 minutes. The supernatant was discarded and the cells were gently tapped to be loosening. 50 μL of gradient diluted antibody was added (antibody concentration: from 30 μg/mL, 3-fold dilution for 5 gradients) per well, and incubated at 4° C. for 1 hour. After incubation, 180 μL of 0.5% BSA was added to each well for washing 3 times. 30 μL/well of secondary antibody AlexaFluro647 anti-human IgG (Jackson Immuno Research, Cat. No: 109-606-170) was added and incubated at 4° C. for 45 minutes. At the end of the incubation, each well was washed 3 times with 180 μL of 0.5% BSA and finally resuspended in 50 μL of PBS for iQue (Intellicyt, USA) assay.

[4] = molecular target: T4, human CD70, full length, on CHO cells (CHO-human CD70-B07) (human, UniProt P32970 1-193); test: flow cytometry, chimeric IgG on CHO-human CD70 cells
T4 construct: whole, on cells; Stably transfected CHO cells; also called CHO-CD70
T4 sequence (looked up): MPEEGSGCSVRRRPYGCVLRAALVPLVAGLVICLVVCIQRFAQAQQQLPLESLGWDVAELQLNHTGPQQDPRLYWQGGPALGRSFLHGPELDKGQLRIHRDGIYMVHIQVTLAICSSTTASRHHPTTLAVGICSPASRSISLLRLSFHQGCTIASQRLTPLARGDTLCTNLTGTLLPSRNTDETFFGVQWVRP
Method: as §2

[5] = molecular target: T4, human CD70, full length, on CHO cells …; test: flow cytometry, hybridoma supernatant, cell surface human CD70
[6] = molecular target: T1, recombinant trimeric protein of human …; test: ELISA binding, hybridoma supernatant, human CD70

B1: 25H7 chimeric antibody (antibody, V domains shown)
VH: EIQLVQSGPELKKPGETVKISCKASGYTFTNYGMNWVKQTPGKGLKWMGWINTDTGEPTYADDFKGRFAFSLETSASTAYLQINNLKNEDMATYFCAREEDYRYVFNYWGQGTTLTVSS
VL: DIQMTQTTSSLSASLGDRVTISCRASQDISNYLNWYQQKPDGTVKLLIYYTSRLHSGVPSRFSGSGSGTDYSLTISNLEQEDIATYFCQQGVTLPLTFGAGTKLELK
IC50 [1]: 0.16 nM | IC50 [2]: 0.15 nM | EC50 [3]: 17.4 nM | EC50 [4]: 16.1 nM

B2: 27A3 chimeric antibody (antibody, V domains shown)
VH: EVQLQESGPGLVQPSQSLSITCTVSGFSLTTYAVHWVRQSPGKGLEWLGVIWSTGITDYNADFISRLSISKDNSKSQVFFKMDSLQSDDTAIYFCARNHYYGNLNAMDYWGQGTSVTVSS
VL: DIVLTQSPASLAVSLGQRATISCRASKSVSTSGYSFMHWYQQKPGQPPKLLIYLASNLESGVPARFSGSGSGTDFTLNIHPVEEEDAATYYCQHSRELPYTFGGGTKLEIK
IC50 [1]: 0.08 nM | EC50 [4]: 4.07 nM

B3: 16J15-H3 hybridoma antibody (antibody, V domains shown)
VH: QVQLKQSGPGLVQPSQSLSITCTVSNFSLSTYGVHWVRQSPGKGLEWLGVIWGGGYTDYNAAFISRLTISKDNSKSQVFFKMNSLQADDTAIYYCARNNYYGNLYAMDYWGQGTSVTVSS
VL: B2 VL with A12P, S26N, T31A, E59D, A87T, L98F, Y100L, G104A, I110L
notes: Mouse antibody in hybridoma culture supernatant
binding result [5]: binds | binding result [6]: binds

B4: 2B12 chimeric antibody (antibody, V domains shown)
VH: B2 VH with E1Q, E6Q, D62A, D83N, T90I, F94Y, H99P
VL: B2 VL with S30D, Y100L, G104A, I110L
IC50 [1]: 0.11 nM | EC50 [4]: 17.7 nM

B5: 36E7-D6 hybridoma antibody (antibody, V domains shown)
VH: QVQLKQSGPGLVQPSQSLSITCTVSDFSLTIFGVHWVRQSPGKGLEWLGVIWRDGSTDYNAALMSRLNITKDNSKSQVFFKMNSLQTDDTAIYYCAKNRRYDYAWFPYWGQGTLVSVSA
VL: B2 VL with T31A, M37L, A55T, E97D, L98F, Y100P, G104A, I110L
notes: as for B3
binding result [5]: binds | binding result [6]: binds

B6: 1H21-D5 hybridoma antibody (antibody, V domains shown)
VH: QVQLKQSGPGLVQPSQSLSITCTVSGFSLTSYGIHWVRQSPGKGLEWLGVIWSGGSTDFNAAFISRLSISKDNSKSQVFFKVISLQANDTAIYYCGRNSYYGNLYAMDYWGQGTSVTVSS
VL: B2 VL with A9T, T31A, Y100L, G104A, I110L
notes: as for B3
binding result [5]: binds | binding result [6]: binds

B7: 10C19-D11 hybridoma antibody (antibody, V domains shown)
VH: QVQLQQSGPGLVQPSQSLSITCTVSGFSLTTYAVHWFRQSPGQGLEWLGVIWSTGITDFNAAFISRLNINKDSSKSQIFFKMISLQPNDTAIYYCGRNSYYGNLYAMDYWGQGTSVTVSS
VL: B2 VL with A9T, T31A, S35N, G72E, E85G, Y100L, G104A, I110L
notes: as for B3
binding result [5]: binds | binding result [6]: binds

B8: 14C12 chimeric antibody (antibody, V domains shown)
VH: EVQLQQSGPELVKPGASVKMSCKASGYTFTDYVIHWVKQKPGQGLEWIGYLHPYNDDTKYNEKFKGKATLTSDKSSSTAYMELSSLTSEDSAVYYCARRGYYDYAWFADWGQGTLVTVSA
VL: B2 VL with T31A, S35T, F36W, M37I, G45R, P47A, Y100P
IC50 [1]: 0.1 nM | EC50 [4]: 15 nM

B9: 17A9-G5 hybridoma antibody (antibody, V domains shown)
VH: B3 VH with N26G, S30T, G53S, G54A, Y56I, A62P, T68S, S70T, N99D
VL: B2 VL with S26N, T31A, S35T, A55V, E59A, E84G, L98F, Y100L, G104A, I110L
notes: as for B3
binding result [5]: binds | binding result [6]: binds

B10: 32D1 chimeric antibody (antibody, V domains shown)
VH: B8 VH with V18L, S84N
VL: B2 VL with R24K, T31A, S35T, F36W, P47A, Y100P
IC50 [1]: 0.1 nM | EC50 [4]: 12.1 nM

B11: 42H19-G4 hybridoma antibody (antibody, V domains shown)
VH: B5 VH with L11P, V34I, A61V
VL: B2 VL with T31A, M37L, A55T, E97D, L98F, Y100P, G104A, I110L
notes: as for B3
binding result [5]: binds | binding result [6]: binds

B12: 26G11 chimeric antibody (antibody, V domains shown)
VH: QVQLQQSGPELVKPGASVKISCKTSGYTFADYTMHWVRQSQGKSLEWIGDIYPNDGGPNNNQKFKDKATLTVDKSSSTAYMELRSLTSEDSAVYYCARPFYYGNYAGFAFWGQGTLVTVSA
VL: EMVLTQSPAIMSASPGEKVTMTCSASSSVSYMYWYQQKPGSSPRLLIYDTSNLASGVPVRFSGSGSGTSYSLTISRMEAEDAATYYCQQWSSYPLTFGAGTRLEIK
IC50 [1]: 0.17 nM | IC50 [2]: 0.21 nM | EC50 [3]: 21 nM | EC50 [4]: 22.5 nM

B13: 4H6-A6 hybridoma antibody (antibody, V domains shown)
VH: QVQLKQSGPGLVQPSQKLSITCTVSGFSLTTYGVHWIRQSPVKGLEWLGVIWTTGVVDYNAAFISRLNITKDNSKSQIFFKMNSLQTNDTAMYYCARNSYYGNLYVMDYWGQGTSVTVSS
VL: DIVLTQSPASLPIFLGQRATISCRASRSVSASGYTFMHWYQQKPGQPPKLLIYLVSNLESGVPARFSGSGSGTDFTLNIHPVEEEDAATYYCQHSREFPLTFGAGTKLELK
notes: as for B3
binding result [5]: binds | binding result [6]: binds
